What was measured:
[1] = target: Angiotensin-converting enzyme-I (ACE-1)
[2] = target: Angiotensin-converting enzyme-I (ACE-1); remark: listed apart in the source
[3] = target: SOP2 gelatine extracted from blue whiting skin and bone
[4] = target: SOP1 gelatine extracted from blue whiting skin and bone

% ACE-1 inhibition at 1 mg/ml [1]	% ACE-I inhibition at 1 mg/mL [2]	Substance	other results
	28.9%	Blue whiting 3 KDa permeate (blood water fraction) (pool or library)	% Renin inhibition at 1 mg/mL (Renin): 10.6%
73.1%		SOP1 gelatine papain hydrolysate (blue whiting skin and bone) (pool or library)	
26.8%		SOP1 gelatine alcalase hydrolysate (blue whiting skin and bone) (pool or library)	
80.5%		≤3 KDa peptide fraction of the SOP1 gelatine papain hydrolysate (pool or library)	
84.5%		≤3 KDa peptide fraction of the SOP2 gelatine papain hydrolysate (pool or library)	

Second part, the substance before the results:

Substance	% ACE-1 inhibition at 1 mg/ml [1]	% ACE-I inhibition at 1 mg/mL [2]	other results
SOP2 gelatine papain hydrolysate (blue whiting skin and bone) (pool or library)	71.1%		
Papain (EC number 3.4.22.2) (from UniProt P00784) (enzyme)			degree of hydrolysis (DH) after 4 h, pH-stat method [3]: 19.4%; degree of hydrolysis (DH) after 4 h, pH-stat method [4]: 20.4%
≤3 KDa peptide fraction of the SOP2 gelatine alcalase hydrolysate (pool or library)	87.1%		
Blue whiting 10 KDa permeate (blood water fraction) (pool or library)		33.1%	
Mackerel retentate (blood water fraction) (pool or library)		95.4%	
Mackerel 3 KDa permeate (blood water fraction) (pool or library)		83.9%	% Renin inhibition at 1 mg/mL (Renin): 21%
Alcalase (EC number 3.4.21.62) (from UniProt P00780) (enzyme)			degree of hydrolysis (DH) after 4 h, pH-stat method [3]: 2.54%; degree of hydrolysis (DH) after 4 h, pH-stat method [4]: 1.87%
SOP2 gelatine alcalase hydrolysate (blue whiting skin and bone) (pool or library)	25.1%		
Mackerel 10 KDa permeate (blood water fraction) (pool or library)		96.9%	
Blue whiting retentate (blood water fraction) (pool or library)		59.4%	
≤3 KDa peptide fraction of the SOP1 gelatine alcalase hydrolysate (pool or library)	84.2%		

From patent US20230389573A1
